Data on 4 compounds can be found in publication PMC12207366, “Protonated Glutamate and Aspartate Side Chains Can Recognize Phosphodiester Groups via Strong and Short Hydrogen Bonds in Biomacromolecular Complexes” (Angewandte Chemie (International Ed. in English), 2025).

For series [1] the following is noted: unstructured peptides; cited from earlier work.
Another series concerns the target Glu190 (UniProt position 190, EALVEEEKTGD). Put plainly: ITC. Particulars: 20 °C, 200 mM NaCl, 50 mM Tris (pH 8.5-7.5), 50 mM BisTris (pH 7.0-6.0) or 50 mM Na-acetate (pH 5.5-4.0), each with 1 mM beta-mercaptoethanol.
In the next series the target is Glu218 (UniProt position 218, RALAEEKGLEF). Put plainly: ITC. The note with it: 20 °C, 200 mM NaCl, 50 mM Tris (pH 8.5-7.5), 50 mM BisTris (pH 7.0-6.0) or 50 mM Na-acetate (pH 5.5-4.0), each with 1 mM beta-mercaptoethanol.
Where [2] appears, read: c-di-GMP-bound protein (pKab of the thermodynamic cycle).
Setting [3] is: ligand-free protein (pKaf of the thermodynamic cycle).

For `N[C@@H](CC(=O)O)C(=O)O` [aspartate], in series [1], the “pKa of side chain carboxylate group” value is reported as roughly 3.9.
As for `N[C@@H](CCC(=O)O)C(=O)O` [glutamate], the “pKa of side chain carboxylate group” value in series [1] is listed as roughly 4.4.
For orientation: pKa means the pH at which an ionisable group is half protonated. A lower pKa goes with a stronger acid or weaker base. As to “PilF GSPII-B domain (PilF159-302) Q190E (Thermus thermophilus; Q190E)”, the pKa with Glu190 (setting [2]) was 7.5; with Glu190 (setting [3]) it was 6.3.
Take “PilF GSPII-B domain (PilF159-302) Q218E (Thermus thermophilus; Q218E)”: the pKa is listed as 7.1 with Glu218 (setting [2]) and 5.9 with Glu218 (setting [3]).
